± gives the standard error. This sample holds only a part of the variants without activity.
B1: glmS ribozyme (parent)
chain: AUAAAAGCGCCAGAACUACAGAAAUGUAGUUGACGAGGAGGAGGUUUAUCGAAUUUUCGGCGGAUGCCUCCAAA

Key:
Conditions in all cases: with glucosamine-6-phosphate
glucosamine-6-phosphate [1] = variants of: B1; assay: self-cleavage kobs at 160 uM GlcN6P; higher = faster cleavage; RNA array
How it was run: (§1)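 Barcoded ribozyme variants were transcribed in situ on sequenced MiSeq chips by E. coli RNA polymerase. At 37 °C, a hybridised Cy3 probe tracked them while glucosamine-6-phosphate (40 μM to 10 mM) in HEPES/KCl/Mg(OAc)2 buffer flowed in and tiles were imaged over ~14 h. Per-tile medians of signals normalised to baseline and to non-cleaving reference variants were fit to one- or two-exponential decays, giving kobs. kcat and KM came from weighted Michaelis–Menten fits across concentrations.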

glucosamine-6-phosphate [2] = variants of: B1; assay: self-cleavage kobs at 640 uM GlcN6P; higher = faster cleavage; RNA array
How it was run: as §1

glucosamine-6-phosphate [3] = variants of: B1; assay: self-cleavage kobs at 2500 uM GlcN6P; higher = faster cleavage; RNA array
How it was run: as §1

glucosamine-6-phosphate [4] = variants of: B1; assay: self-cleavage kobs at 10000 uM GlcN6P; higher = faster cleavage; RNA array
How it was run: as §1

glucosamine-6-phosphate [5] = variants of: B1; assay: self-cleavage kobs at 40 uM GlcN6P; higher = faster cleavage; RNA array
How it was run: as §1

Row | Variant | self-cleavage kobs at 160 uM GlcN6P (glucosamine-6-phosphate [1]) [s⁻¹] | self-cleavage kobs at 640 uM GlcN6P (glucosamine-6-phosphate [2]) [s⁻¹] | self-cleavage kobs at 2500 uM GlcN6P (glucosamine-6-phosphate [3]) [s⁻¹] | self-cleavage kobs at 10000 uM GlcN6P (glucosamine-6-phosphate [4]) [s⁻¹] | self-cleavage kobs at 40 uM GlcN6P (glucosamine-6-phosphate [5]) [s⁻¹]
1 | G9A A36G C67U | < 1e-05 | – | – | – | –
2 | G7A U30C C61A C67U | < 1e-05 | – | – | – | –
3 | G7C C8G | < 1e-05 | < 1e-05 | < 1e-05 | < 1e-05 | –
4 | C61A G62C G63U C71A | – | – | – | < 1e-05 | < 1e-05
5 | A6C A53U G63A | < 1e-05 | < 1e-05 | < 1e-05 | – | –
6 | G7U A12C G41A | < 1e-05 | – | < 1e-05 | – | –
7 | G7U C10G G13U A15U A39G | < 1e-05 | < 1e-05 | < 1e-05 | – | –
8 | G7U G13U A14U A48G U54A | < 1e-05 | < 1e-05 | < 1e-05 | – | –
9 | G7U G13C G35U G37A | < 1e-05 | – | < 1e-05 | – | –
10 | G7C C58A | < 1e-05 | < 1e-05 | < 1e-05 | < 1e-05 | –
11 | G7C A14G C61U | < 1e-05 | – | – | – | –
12 | C8U G41C G62U C68U | < 1e-05 | < 1e-05 | < 1e-05 | – | –
13 | G7A G62C C67G | < 1e-05 | < 1e-05 | < 1e-05 | – | –
14 | C8A G60U U69A | < 1e-05 | < 1e-05 | – | – | –
15 | A6U U45A A48G | < 1e-05 | < 1e-05 | – | – | –
16 | C61U C68U C70A | – | – | < 1e-05 | – | < 1e-05
17 | G7U C16G U30G G59A U69G | < 1e-05 | – | – | – | –
18 | C61A U69A | – | – | – | < 1e-05 | < 1e-05
19 | A6U G66A C67G | < 1e-05 | – | – | – | –
20 | C68A C70A | – | – | – | – | < 1e-05
21 | G7U C16U | < 1e-05 | – | – | – | –
22 | G63C G66C | < 1e-05 | < 1e-05 | < 1e-05 | < 1e-05 | < 1e-05
23 | C8G C16A G35U | < 1e-05 | – | < 1e-05 | – | –
24 | A6C G35C G44U | < 1e-05 | < 1e-05 | < 1e-05 | – | –
25 | G9A G41A | < 1e-05 | < 1e-05 | < 1e-05 | < 1e-05 | –
26 | G7A G59U C70A | < 1e-05 | – | < 1e-05 | – | –

Row | Variant | self-cleavage kobs at 160 uM GlcN6P (glucosamine-6-phosphate [1]) [s⁻¹] | self-cleavage kobs at 640 uM GlcN6P (glucosamine-6-phosphate [2]) [s⁻¹] | self-cleavage kobs at 2500 uM GlcN6P (glucosamine-6-phosphate [3]) [s⁻¹] | self-cleavage kobs at 10000 uM GlcN6P (glucosamine-6-phosphate [4]) [s⁻¹] | self-cleavage kobs at 40 uM GlcN6P (glucosamine-6-phosphate [5]) [s⁻¹]
27 | C8A G44C | < 1e-05 | < 1e-05 | < 1e-05 | – | –
28 | A6C A14C G44U U45C | < 1e-05 | – | < 1e-05 | – | –
29 | A6C C10A | < 1e-05 | < 1e-05 | < 1e-05 | < 1e-05 | –
30 | G7A G37C A64G | < 1e-05 | – | – | – | –
31 | G9C U56A | < 1e-05 | < 1e-05 | < 1e-05 | – | –
32 | C8A U57C | < 1e-05 | < 1e-05 | < 1e-05 | – | –
33 | C8U A39C G44A U56G U65A | < 1e-05 | – | – | – | –
34 | G7U A12C U54A C58A C70G | < 1e-05 | – | < 1e-05 | – | –
35 | G7A C58A | < 1e-05 | < 1e-05 | < 1e-05 | – | –
36 | C8A C11U C50G A53U G63A | 0.00012 ± 2.8e-05 | 0.000594 ± 0.00015 | 9.63e-05 ± 3.3e-05 | – | –
37 | G9A C11G A12G A15U C16A U30C G32A A48G G59U G60U | < 1e-05 | – | < 1e-05 | – | –
38 | G63C C71U | < 1e-05 | – | – | < 1e-05 | < 1e-05
39 | C8G U57G | < 1e-05 | < 1e-05 | < 1e-05 | – | –
40 | G7C C10G U45C | < 1e-05 | – | – | – | –
41 | C8G G62C | < 1e-05 | – | – | 3.7e-05 ± 8.1e-06 | –
42 | A6G G7U C34G | < 1e-05 | < 1e-05 | < 1e-05 | – | –
43 | G7U C19U G38U | < 1e-05 | – | < 1e-05 | – | –
44 | A73U | – | – | 0.00477 ± 0.0019 | 0.0245 ± 0.0093 | 0.00108 ± 0.00026
45 | G63C A64C | < 1e-05 | – | – | < 1e-05 | < 1e-05
46 | C61A G62C | < 1e-05 | < 1e-05 | – | < 1e-05 | < 1e-05
47 | A6G G38C U49A | < 1e-05 | < 1e-05 | – | – | –
48 | A6C C10G A36C U49C A53U A64U | < 1e-05 | – | – | – | –
49 | G7U G13U | < 1e-05 | – | < 1e-05 | < 1e-05 | –
50 | C8G G38A A48U C61U | < 1e-05 | – | – | – | –
51 | C61U U65C | – | < 1e-05 | < 1e-05 | < 1e-05 | < 1e-05
52 | G62U A64U | – | < 1e-05 | – | < 1e-05 | < 1e-05

Reference: the supplement of paper PMC7125110
